Experiments:
[1] = target: Abl kinase (Homo sapiens, UniProt P00519); assay: Kinase substrate peptide array incubated with Abl kinase alone, phospho-specific fluorescent stain; assay type: biochemical; conditions: incubation with Abl alone; 200 μM ATP, 10 mM MgCl2, 1 hour at 30° C.; FIG. 4A
Source text: (§1) An array of 2520 peptides with 6 different amino acid sequences repeated 420 times was synthesized in situ. The six sequences were designed to represent wild type and two mutated versions of substrates of Abl and Src tyrosine kinases. The sequence of the peptides were: Abl (wt)—AIYAAPFK (SEQ ID NO:10); Abl (Mt 1)—ARYAAPDK (SEQ ID NO:11); Abl (Mt 2)—AIGAAPFK (SEQ ID NO:12); Src (wt)—EIYGEFKK (SEQ ID NO:13); Src (mt1)—EAYGEAKK (SEQ ID NO:14); and Src (mt2)—EIAGEFKK (SEQ ID NO:15), as shown in FIG. 3A.
(§2) The array was synthesized on amino derivatized silicon wafers coupled with dO-(N-Boc-2-aminoethyl)-O′—(N-diglycolyl-2-aminoethyl)hexaethyleneglycol molecule for spacing out the peptides from the surface. The peptides were synthesized using photodeprotection and t-Boc protected amino acids.
(§3) The kinase substrate array was then assayed for detecting Abl and Src kinase activity. The protecting groups of the side groups of amino acids were cleaved by HBr/TFA treatment for one hour in the presence of the scavengers thioanisole and pentamethylbenzene. The array was subsequently neutralized by 5% DIEA treatment for 5 minutes. The array was blocked with 2% BSA for 1 hour for eliminating non-specific sticking of the kinase to the array. […] The kinase mixture was washed off and the phosphorylated peptides were detected by incubating the array with a phospho-specific fluorescent stain.

[2] = test system: combination of Abl and Src; assay: Kinase substrate peptide array incubated with mixture of Abl and Src kinases, phospho-specific fluorescent stain; assay type: biochemical; conditions: incubation with combination of Abl and Src; 200 μM ATP, 10 mM MgCl2, 1 hour at 30° C.; FIG. 4C
Source text: as §1, §2, §3

[3] = test system: T1, Abl (Mt 1) substrate peptide ARYAAPDK
T1 sequence: ARYAAPDK

[4] = test system: T2, Src (mt2) substrate peptide EIAGEFKK
T2 sequence: EIAGEFKK

[5] = test system: T3, Src (wt) substrate peptide EIYGEFKK
T3 sequence: EIYGEFKK

[6] = test system: T4, Abl (Mt 2) substrate peptide AIGAAPFK
T4 sequence: AIGAAPFK

[7] = test system: T5, Abl (wt) substrate peptide AIYAAPFK
T5 sequence: AIYAAPFK

[8] = test system: T6, Src (mt1) substrate peptide EAYGEAKK
T6 sequence: EAYGEAKK

[9] = target: Src kinase (Homo sapiens, UniProt P12931); assay: Kinase substrate peptide array incubated with Src kinase alone, phospho-specific fluorescent stain; assay type: biochemical; conditions: incubation with Src alone; 200 μM ATP, 10 mM MgCl2, 1 hour at 30° C.; FIG. 4B
Source text: as §1, §2, §3

Chain of Abl kinase (P00519 whole entry): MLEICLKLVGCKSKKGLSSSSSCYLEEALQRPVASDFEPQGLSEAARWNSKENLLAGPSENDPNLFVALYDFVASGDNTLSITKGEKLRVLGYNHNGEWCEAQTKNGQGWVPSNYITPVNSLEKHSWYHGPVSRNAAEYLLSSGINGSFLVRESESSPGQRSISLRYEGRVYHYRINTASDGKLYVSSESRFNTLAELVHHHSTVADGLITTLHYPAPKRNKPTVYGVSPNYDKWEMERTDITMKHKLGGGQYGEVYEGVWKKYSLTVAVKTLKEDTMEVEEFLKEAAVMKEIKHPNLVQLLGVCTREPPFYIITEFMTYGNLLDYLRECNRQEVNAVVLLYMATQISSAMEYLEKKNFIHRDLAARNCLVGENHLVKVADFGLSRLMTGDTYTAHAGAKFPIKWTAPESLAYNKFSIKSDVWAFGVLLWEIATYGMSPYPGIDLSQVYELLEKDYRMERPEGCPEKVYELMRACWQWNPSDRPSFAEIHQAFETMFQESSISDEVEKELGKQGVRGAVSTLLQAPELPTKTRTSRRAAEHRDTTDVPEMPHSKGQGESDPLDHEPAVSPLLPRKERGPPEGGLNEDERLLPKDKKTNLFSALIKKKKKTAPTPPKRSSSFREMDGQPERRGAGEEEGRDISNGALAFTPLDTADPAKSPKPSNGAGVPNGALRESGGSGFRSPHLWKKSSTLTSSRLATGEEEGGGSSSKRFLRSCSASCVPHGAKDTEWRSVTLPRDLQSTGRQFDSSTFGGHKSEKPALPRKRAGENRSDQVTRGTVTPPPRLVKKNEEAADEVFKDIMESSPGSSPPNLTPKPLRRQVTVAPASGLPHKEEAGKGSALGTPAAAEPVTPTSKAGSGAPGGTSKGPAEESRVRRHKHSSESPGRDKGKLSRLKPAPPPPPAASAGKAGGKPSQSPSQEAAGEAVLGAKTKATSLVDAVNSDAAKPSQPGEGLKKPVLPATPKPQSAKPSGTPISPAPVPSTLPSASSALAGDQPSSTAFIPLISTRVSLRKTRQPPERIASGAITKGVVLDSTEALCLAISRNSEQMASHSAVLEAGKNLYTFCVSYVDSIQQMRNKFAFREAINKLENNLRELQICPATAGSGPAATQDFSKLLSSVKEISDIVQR
Chain of Abl kinase (Homo sapiens, UniProt P00519) (P00519 whole entry): as above

| Substance | phosphorylation of immobilized peptide (fluorescence of array spots) [1] | phosphorylation of immobilized peptide (fluorescence of array spots) [2] | phosphorylation of the arrayed peptide, detected with a phospho-specific fluorescent stain [3] | phosphorylation of the arrayed peptide, detected with a phospho-specific fluorescent stain [4] | phosphorylation of the arrayed peptide, detected with a phospho-specific fluorescent stain [5] | phosphorylation of the arrayed peptide, detected with a phospho-specific fluorescent stain [6] | phosphorylation of the arrayed peptide, detected with a phospho-specific fluorescent stain [7] | phosphorylation of the arrayed peptide, detected with a phospho-specific fluorescent stain [8] | phosphorylation of immobilized peptide (fluorescence of array spots) [9] |
| --- | --- | --- | --- | --- | --- | --- | --- | --- | --- |
| AIYAAPFK [SEQ ID NO:10, wild type substrate peptide of Abl tyrosine kinase, synthesized in situ on array] | phosphorylated | phosphorylated | – | – | – | – | – | – | – |
| Abl kinase | – | – | only the corresponding wild type substrate peptide (either SEQ NO:10 or 13, respectively) was phosphorylated (this peptide not phosphorylated) | only the corresponding wild type substrate peptide (either SEQ NO:10 or 13, respectively) was phosphorylated (this peptide not phosphorylated) | only the corresponding wild type substrate peptide (either SEQ NO:10 or 13, respectively) was phosphorylated (this peptide not phosphorylated) | only the corresponding wild type substrate peptide (either SEQ NO:10 or 13, respectively) was phosphorylated (this peptide not phosphorylated) | in the presence of one kinase, only the corresponding wild type substrate peptide (either SEQ NO:10 or 13, respectively) was phosphorylated | only the corresponding wild type substrate peptide (either SEQ NO:10 or 13, respectively) was phosphorylated (this peptide not phosphorylated) | – |
| EIYGEFKK [SEQ ID NO:13, wild type substrate peptide of Src tyrosine kinase, synthesized in situ on array] | – | phosphorylated | – | – | – | – | – | – | phosphorylated |
| Src kinase | – | – | only the corresponding wild type substrate peptide (either SEQ NO:10 or 13, respectively) was phosphorylated (this peptide not phosphorylated) | only the corresponding wild type substrate peptide (either SEQ NO:10 or 13, respectively) was phosphorylated (this peptide not phosphorylated) | in the presence of one kinase, only the corresponding wild type substrate peptide (either SEQ NO:10 or 13, respectively) was phosphorylated | only the corresponding wild type substrate peptide (either SEQ NO:10 or 13, respectively) was phosphorylated (this peptide not phosphorylated) | only the corresponding wild type substrate peptide (either SEQ NO:10 or 13, respectively) was phosphorylated (this peptide not phosphorylated) | only the corresponding wild type substrate peptide (either SEQ NO:10 or 13, respectively) was phosphorylated (this peptide not phosphorylated) | – |

Reference: patent US20100248975A1, “Fluorogenic peptide substrate arrays for highly multiplexed, real-time monitoring of kinase activities” (priority 2006, published 2010)
